Experimental findings from PMC6509496, “Crystal structure of the TreS:Pep2 complex, initiating α-glucan synthesis in the GlgE pathway of mycobacteria” (The Journal of Biological Chemistry, 2019) are described below.

The chains are these.
B3: Mycobacterium smegmatis trehalose synthase (TreS) (enzyme, M. smegmatis, UniProt A0R6E0 1-593, looked up)
chain: MEEHTQGSHVEAGIVEHPNAEDFGHARTLPTDTNWFKHAVFYEVLVRAFYDSNADGIGDLRGLTEKLDYIKWLGVDCLWLPPFYDSPLRDGGYDIRDFYKVLPEFGTVDDFVTLLDAAHRRGIRIITDLVMNHTSDQHEWFQESRHNPDGPYGDFYVWSDTSDRYPDARIIFVDTEESNWTFDPVRRQFYWHRFFSHQPDLNYDNPAVQEAMLDVLRFWLDLGIDGFRLDAVPYLFEREGTNCENLPETHAFLKRCRKAIDDEYPGRVLLAEANQWPADVVAYFGDPDTGGDECHMAFHFPLMPRIFMAVRRESRFPISEILAQTPPIPDTAQWGIFLRNHDELTLEMVTDEERDYMYAEYAKDPRMKANVGIRRRLAPLLENDRNQIELFTALLLSLPGSPVLYYGDEIGMGDIIWLGDRDSVRTPMQWTPDRNAGFSKATPGRLYLPPNQDAVYGYHSVNVEAQLDSSSSLLNWTRNMLAVRSRHDAFAVGTFRELGGSNPSVLAYIREVTRQQGDGGAKTDAVLCVNNLSRFPQPIELNLQQWAGYIPVEMTGYVEFPSIGQLPYLLTLPGHGFYWFQLREPDPEPGAQQ
notes: Trehalose synthase TreS of M. smegmatis, locus MSMEG_6515, cloned from genomic DNA into NdeI/HindIII of pET28a; the printed primers run from the start codon to the stop codon; calculated tetramer mass 272,000 Da; also called Msm TreS; MSMEG_6515; source: E. coli BL21 (DE3), purified (Ni-NTA, HiTrap Q, Sephacryl S-300HR)

Series [1] has as its target T1, Mycobacterium smegmatis trehalose synthase (TreS) (M. smegmatis, UniProt A0R6E0 1-593).
T1 construct: Trehalose synthase TreS of M. smegmatis (MSMEG_6515), cloned from genomic DNA with primers from the start codon to the stop codon; concentrations in the ITC count on the monomer; also called Msm TreS; MsTreS; source: E. coli BL21 (DE3), purified (Ni-NTA, HiTrap Q, Sephacryl S-300HR)
T1 sequence (looked up): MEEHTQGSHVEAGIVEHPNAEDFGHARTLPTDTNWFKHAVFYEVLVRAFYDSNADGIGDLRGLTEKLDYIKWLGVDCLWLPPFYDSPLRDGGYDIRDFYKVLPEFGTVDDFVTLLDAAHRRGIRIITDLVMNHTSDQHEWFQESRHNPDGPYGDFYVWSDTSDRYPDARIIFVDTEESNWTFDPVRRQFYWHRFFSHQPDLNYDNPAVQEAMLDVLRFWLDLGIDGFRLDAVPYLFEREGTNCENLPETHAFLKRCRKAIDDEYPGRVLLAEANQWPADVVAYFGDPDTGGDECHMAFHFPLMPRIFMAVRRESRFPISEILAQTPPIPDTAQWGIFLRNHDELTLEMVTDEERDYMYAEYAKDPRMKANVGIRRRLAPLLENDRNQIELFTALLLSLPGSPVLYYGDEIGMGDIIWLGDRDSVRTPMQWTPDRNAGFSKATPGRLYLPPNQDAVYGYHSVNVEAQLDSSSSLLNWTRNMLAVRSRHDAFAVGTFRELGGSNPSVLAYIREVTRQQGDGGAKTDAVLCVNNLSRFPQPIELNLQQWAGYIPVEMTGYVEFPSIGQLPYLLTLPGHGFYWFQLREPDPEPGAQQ
The series is described as follows: ITC; Pep2 titrated to 75 uM TreS in the sample chamber, up to a molar ratio [Pep2]/[TreS] of about 1.5; pH 6.5; 300 mM NaCl; 298 K. To be noted: both partners purified. (In general: ITC needs no label: the signal is the heat of the interaction.)

The target in series [2] is T1, Mycobacterium smegmatis trehalose …. The series is described as follows: ITC; Pep2 titrated to 75 uM TreS in the sample chamber, up to a molar ratio [Pep2]/[TreS] of about 1.5; pH 6.5; 200 mM NaCl; 298 K. To be noted: both partners purified.
Series [3] shares this target. The series is described as follows: ITC; Pep2 titrated to 75 uM TreS in the sample chamber, up to a molar ratio [Pep2]/[TreS] of about 1.5; pH 6.5; 400 mM NaCl; 298 K. To be noted: both partners purified.
Series [4] concerns the target B3. The series is described as follows: ITC; Pep2 (500 μM in the syringe) titrated into TreS (75 μM monomer); 50 mM sodium phosphate pH 6.5, 300 mM NaCl, 10% glycerol, 25 °C. The note with it: both partners purified.
The target in series [5] is B3. Described as above. The note with it: both partners purified. This is another data set of the same source.
Series [6] deals with the molecule itself. The series is described as follows: AUC; sedimentation equilibrium, 50 mM sodium phosphate pH 6.5, 300 mM NaCl, 10% glycerol, 4 °C; 8000, 9000, 10,000 rpm; TreS alone at 6, 4, 2 μM, 1:1 mixture at 3.75, 2.5, 1.25 μM; single-species model.
In series [7] the target is T2, Mycobacterium tuberculosis maltokinase (Pep2) (M. tuberculosis, UniProt O07177).
T2 construct: also called Mtb Pep2; MtPep2
The series is described as follows: SEC. To be noted: both partners purified.

The series “SEC” deals with the molecule itself. The series is described as follows: SEC.
The target in series [8] is B3. The series is described as follows: crystal structure; vapor diffusion of mixtures of M. smegmatis TreS and Pep2 at molar ratios 1:1 to 1:2; 9-10% PEG 8000, 4% glycerol, 200 mM MgCl2, 0.1 M Tris-HCl pH 6.7-7.0; 3.6 Å. To be noted: both partners purified.
In series [9] the target is B3. The series is described as follows: ITC; Pep2 (500 μM in the syringe) titrated into TreS (75 μM monomer); 50 mM sodium phosphate pH 7.5, 300 mM NaCl, 10% glycerol, 25 °C. The note with it: both partners purified.
Series [10] has as its target B3. The series is described as follows: ITC; Pep2 (500 μM in the syringe) titrated into TreS (75 μM monomer); 50 mM sodium phosphate pH 8.5, 300 mM NaCl, 10% glycerol, 25 °C. The note with it: both partners purified.
The target of series [11] is B3. The series is described as follows: AUC; sedimentation equilibrium, 50 mM sodium phosphate pH 6.5, 300 mM NaCl, 10% glycerol, 4 °C; 8000, 9000, 10,000 rpm; TreS alone at 6, 4, 2 μM, 1:1 mixture at 3.75, 2.5, 1.25 μM; single-species model. The note with it: both partners purified.

B1: Mycobacterium smegmatis maltokinase (Pep2) (enzyme)
chain: not shown
notes: Maltokinase Pep2 of M. smegmatis (MSMEG_6514); 441 residues; cloned with primers from the start codon to the stop codon; also called Msm Pep2; MsPep2; source: E. coli BL21 (DE3), purified (Ni-NTA, HiTrap Q, Sephacryl S-300HR)
Take B1: the Ka in series [1] came out at 222000 M⁻¹; in series [2], 210000 M⁻¹; in [3], 210000 M⁻¹. The values for the Kd in [1], in series [2] and in [3] were 4.5 µM, 4.8 µM and 4.8 µM, respectively. The stoichiometry N (usually the number of molecules, sites or subunits per partner or assembly) in series [1] came out at 0.54 ± 0.01; in [2], 0.79 ± 0.015; in [3], 0.58 ± 0.01.

B2: N-terminally truncated M. smegmatis Pep2 (Pep2-Δ70) (domain or fragment)
chain: not shown
notes: Maltokinase Pep2 of M. smegmatis (MSMEG_6514) with a 70-amino acid N-terminal truncation; the whole protein has 441 residues; The first residue 71 follows from the stated 70-residue truncation; also called Msm Pep2-Δ70; source: E. coli BL21 (DE3), purified (as WT Pep2, NaCl 300 mM before ion exchange)
In the case of B2, in series [4], binding was characterised by a dissociation constant (Kd) of 28.6 µM. Moreover, in series [5], the Ka was found to be 35000 M⁻¹; the Kd – broadly, the free concentration of one partner at which half of the binding sites on the other are occupied at equilibrium, for simple one-to-one binding – came out at 26.8 µM; the dH is -17.9 kcal/mol; the “stoichiometry N” value is 0.681 ± 0.004.

Regarding B3, the “stoichiometry N” value in series [6] amounted to 4.

B4: Mycobacterium tuberculosis trehalose synthase (TreS), wild type (enzyme)
chain: MNEAEHSVEHPPVQGSHVEGGVVEHPDAKDFGSAAALPADPTWFKHAVFYEVLVRAFFDASADGSGDLRGLIDRLDYLQWLGIDCIWLPPFYDSPLRDGGYDIRDFYKVLPEFGTVDDFVALVDAAHRRGIRIITDLVMNHTSESHPWFQESRRDPDGPYGDYYVWSDTSERYTDARIIFVDTEESNWSFDPVRRQFYWHRFFSHQPDLNYDNPAVQEAMIDVIRFWLGLGIDGFRLDAVPYLFEREGTNCENLPETHAFLKRVRKVVDDEFPGRVLLAEANQWPGDVVEYFGDPNTGGDECHMAFHFPLMPRIFMAVRRESRFPISEIIAQTPPIPDMAQWGIFLRNHDELTLEMVTDEERDYMYAEYAKDPRMKANVGIRRRLAPLLDNDRNQIELFTALLLSLPGSPVLYYGDEIGMGDVIWLGDRDGVRIPMQWTPDRNAGFSTANPGRLYLPPSQDPVYGYQAVNVEAQRDTSTSLLNFTRTMLAVRRRHPAFAVGAFQELGGSNPSVLAYVRQVAGDDGDTVLCVNNLSRFPQPIELDLQQWTNYTPVELTGHVEFPRIGQVPYLLTLPGHGFYWFQLTTHEVGAPPTCGGERRL
notes: also called Mtb TreS; WT Mtb TreS
In the case of B4, the binding result in series [7] was “binds”. For the same molecule, in “SEC”, the “stoichiometry N” value amounted to 4.

B5: Mycobacterium smegmatis maltokinase (Pep2) (enzyme)
chain: not shown
notes: Maltokinase Pep2 of M. smegmatis, locus MSMEG_6514, 441 residues, cloned from genomic DNA into NdeI/HindIII of pET28a; the printed primers run from the start codon to the stop codon; Monomer by size exclusion; calculated mass 48,800 Da; also called Msm Pep2; MsPep2; source: E. coli BL21 (DE3), purified (Ni-NTA, HiTrap Q, Sephacryl S-300HR)
As to B5, the “stoichiometry N” value is 1 Pep2 per TreS protomer in series [8]; 0.574 ± 0.007 in series [5]; 0.459 ± 0.008 in [9]; 0.22 ± 0.04 in series [10]; 2 copies of Pep2 per TreS tetramer in series [11]. In addition, the figures for the Ka in [5], in [9] and in series [10] were 287000 M⁻¹, 160000 M⁻¹ and 28700 M⁻¹, respectively. The Kd was determined as 3.48 µM in [5], 6.25 µM in series [9] and 34.8 µM in [10]. Besides, the dH is -31.3 kcal/mol in series [5], -18.7 kcal/mol in series [9] and -22.3 kcal/mol in series [10].
